# According to IntAct's records for PubMed 31515488:
# B1: NIF3-like protein 1 (Homo sapiens), Q9GZT8 (parent)
# chain: MLSSCVRPVPTTVRFVDSLICNSSRSFMDLKALLSSLNDFASLSFAESWDNVGLLVEPSPPHTVNTLFLTNDLTEEVMEEVLQKKADLILSYHPPIFRPMKRITWNTWKERLVIRALENRVGIYSPHTAYDAAPQGVNNWLAKGLGACTSRPIHPSKAPNYPTEGNHRVEFNVNYTQDLDKVMSAVKGIDGVSVTSFSARTGNEEQTRINLNCTQKALMQVVDFLSRNKQLYQKTEILSLEKPLLLHTGMGRLCTLDESVSLATMIDRIKRHLKLSHIRLALGVGRTLESQVKVVALCAGSGSSVLQGVEADLYLTGEMSHHDTLDAASQGINVILCEHSNTERGFLSDLRDMLDSHLENKINIILSETDRDPLQVV
# B2: Low-density lipoprotein receptor class A domain-containing protein 1 (Homo sapiens), Q5T700 (parent)
# chain: MNKVFPQGENGYTAAESKAHPGGEAGGGHLCCSRRGACLSASLLLLLATVAALIALVTILGLPSCTPGAQACITLTNRTGFLCHDQRSCIPASGVCDGVRTCTHGEDEDESLCRDVPQSLPHFLVAHCGDPASWIYSDQKCDGTNNCGDCSDELSPVTVCPPCGPGWWRCPSTFFKYCDCIPRHLCRDHVQHCSDWSDEYACPGP
# partner: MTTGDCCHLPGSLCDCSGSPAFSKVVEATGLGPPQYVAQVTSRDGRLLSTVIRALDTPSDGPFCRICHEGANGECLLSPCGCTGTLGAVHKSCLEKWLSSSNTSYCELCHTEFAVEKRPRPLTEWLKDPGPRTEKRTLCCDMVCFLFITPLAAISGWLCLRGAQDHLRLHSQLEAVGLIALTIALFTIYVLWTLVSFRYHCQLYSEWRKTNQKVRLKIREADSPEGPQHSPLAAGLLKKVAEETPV
# B3: AKT-interacting protein (Homo sapiens), Q9H8T0 (parent)
# chain: MNPFWSMSTSSVRKRSEGEEKTLTGDVKTSPPRTAPKKQLPSIPKNALPITKPTSPAPAAQSTNGTHASYGPFYLEYSLLAEFTLVVKQKLPGVYVQPSYRSALMWFGVIFIRHGLYQDGVFKFTVYIPDNYPDGDCPRLVFDIPVFHPLVDPTSGELDVKRAFAKWRRNHNHIWQVLMYARRVFYKIDTASPLNPEAAVLYEKDIQLFKSKVVDSVKVCTARLFDQPKIEDPYAISFSPWNPSVHDEAREKMLTQKKPEEQHNKSVHVAGLSWVKPGSVQPFSKEEKTVAT
# partner: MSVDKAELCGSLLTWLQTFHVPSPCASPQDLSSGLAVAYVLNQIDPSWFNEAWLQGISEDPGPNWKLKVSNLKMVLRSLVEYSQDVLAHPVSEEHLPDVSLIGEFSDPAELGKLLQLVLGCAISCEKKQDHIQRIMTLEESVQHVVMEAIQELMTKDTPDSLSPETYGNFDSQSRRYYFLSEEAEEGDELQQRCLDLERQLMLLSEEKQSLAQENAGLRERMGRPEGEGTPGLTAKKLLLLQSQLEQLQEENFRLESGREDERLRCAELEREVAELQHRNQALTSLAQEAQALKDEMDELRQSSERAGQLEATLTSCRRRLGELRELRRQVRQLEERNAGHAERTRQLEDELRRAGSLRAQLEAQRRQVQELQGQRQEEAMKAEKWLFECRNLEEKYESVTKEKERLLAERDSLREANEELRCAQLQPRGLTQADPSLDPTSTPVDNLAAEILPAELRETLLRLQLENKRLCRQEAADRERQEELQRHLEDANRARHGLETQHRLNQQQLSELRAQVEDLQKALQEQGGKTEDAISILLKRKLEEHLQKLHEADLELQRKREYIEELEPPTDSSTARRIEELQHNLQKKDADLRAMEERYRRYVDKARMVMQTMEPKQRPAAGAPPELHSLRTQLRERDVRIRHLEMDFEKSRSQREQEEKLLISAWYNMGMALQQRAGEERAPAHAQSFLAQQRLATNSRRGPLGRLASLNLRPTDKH
# B4: Antiviral innate immune response effector IFIT1 (Homo sapiens), P09914 (parent)
# chain: MSTNGDDHQVKDSLEQLRCHFTWELSIDDDEMPDLENRVLDQIEFLDTKYSVGIHNLLAYVKHLKGQNEEALKSLKEAENLMQEEHDNQANVRSLVTWGNFAWMYYHMGRLAEAQTYLDKVENICKKLSNPFRYRMECPEIDCEEGWALLKCGGKNYERAKACFEKVLEVDPENPESSAGYAISAYRLDGFKLATKNHKPFSLLPLRQAVRLNPDNGYIKVLLALKLQDEGQEAEGEKYIEEALANMSSQTYVFRYAAKFYRRKGSVDKALELLKKALQETPTSVLLHHQIGLCYKAQMIQIKEATKGQPRGQNREKLDKMIRSAIFHFESAVEKKPTFEVAHLDLARMYIEAGNHRKAEENFQKLLCMKPVVEETMQDIHFHYGRFQEFQKKSDVNAIIHYLKAIKIEQASLTRDKSINSLKKLVLRKLRRKALDLESLSLLGFVYKLEGNMNEALEYYERALRLAADFENSVRQGP
# partner: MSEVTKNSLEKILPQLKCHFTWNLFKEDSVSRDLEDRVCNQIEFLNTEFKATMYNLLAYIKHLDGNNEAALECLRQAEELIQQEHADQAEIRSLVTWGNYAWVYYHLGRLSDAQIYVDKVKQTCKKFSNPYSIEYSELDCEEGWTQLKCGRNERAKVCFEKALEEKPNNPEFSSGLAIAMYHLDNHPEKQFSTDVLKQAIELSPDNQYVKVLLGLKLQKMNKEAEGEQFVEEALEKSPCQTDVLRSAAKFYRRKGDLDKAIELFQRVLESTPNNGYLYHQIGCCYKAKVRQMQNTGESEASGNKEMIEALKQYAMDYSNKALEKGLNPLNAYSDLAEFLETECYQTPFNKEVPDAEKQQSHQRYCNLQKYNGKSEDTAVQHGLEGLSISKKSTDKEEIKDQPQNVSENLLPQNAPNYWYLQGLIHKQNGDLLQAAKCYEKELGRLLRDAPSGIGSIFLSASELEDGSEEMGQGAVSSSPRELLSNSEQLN
# Variants of: B1
# Settings: with zn446_human ZNF446, Q9NWS9
# zn446_human ZNF446, Q9NWS9, sequence (Q9NWS9 whole entry): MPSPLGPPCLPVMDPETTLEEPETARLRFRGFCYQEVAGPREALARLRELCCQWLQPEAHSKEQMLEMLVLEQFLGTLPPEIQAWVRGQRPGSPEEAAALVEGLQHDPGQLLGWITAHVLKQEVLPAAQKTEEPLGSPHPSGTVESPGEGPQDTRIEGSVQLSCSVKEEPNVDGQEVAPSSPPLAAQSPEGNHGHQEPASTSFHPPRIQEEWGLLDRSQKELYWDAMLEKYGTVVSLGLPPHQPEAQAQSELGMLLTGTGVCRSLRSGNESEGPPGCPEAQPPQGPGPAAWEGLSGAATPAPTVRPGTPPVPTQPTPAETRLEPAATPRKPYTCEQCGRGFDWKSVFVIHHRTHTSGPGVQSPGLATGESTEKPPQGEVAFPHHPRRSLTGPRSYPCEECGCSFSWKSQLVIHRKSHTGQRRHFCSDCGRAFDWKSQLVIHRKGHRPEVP
row,Variant,effect of a mutation on the interaction
1,T324I,with no effect

# Variants of: B1
# Settings: with rgs20_human RGS20, O76081
# rgs20_human RGS20, O76081, sequence (O76081 whole entry): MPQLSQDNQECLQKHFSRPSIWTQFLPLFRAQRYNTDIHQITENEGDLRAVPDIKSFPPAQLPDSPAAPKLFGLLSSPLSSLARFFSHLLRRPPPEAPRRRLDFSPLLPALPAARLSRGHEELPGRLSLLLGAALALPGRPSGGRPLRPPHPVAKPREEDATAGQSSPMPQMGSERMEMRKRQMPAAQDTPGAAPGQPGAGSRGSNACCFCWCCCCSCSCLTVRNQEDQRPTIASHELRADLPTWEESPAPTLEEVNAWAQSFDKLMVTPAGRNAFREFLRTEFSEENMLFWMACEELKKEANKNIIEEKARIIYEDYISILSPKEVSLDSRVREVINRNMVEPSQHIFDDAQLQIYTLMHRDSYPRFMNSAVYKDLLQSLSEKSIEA
row,Variant,effect of a mutation on the interaction
1,T324I,with no effect

# Variants of: B2
# Settings: with marh2_human MARCHF2, Q9P0N8
row,Variant,effect of a mutation on the interaction
1,E108K,with no effect

# Variants of: B3
# Settings: with hook2_human HOOK2, Q96ED9
row,Variant,effect of a mutation on the interaction
1,R33Q,with no effect

# Variants of: B4
# Settings: with ifit3_human IFIT3, O14879
row,Variant,effect of a mutation on the interaction
1,A162T,with no effect
